# Measured values reported in patent publication US20260209386A1 (MYTHIC THERAPEUTICS, published 2026).
# T1: Human PTK7/CCK4 Protein, His Tag, Acro Biosystems PT7-H52H3 (human, UniProt Q13308 31-704)
# T1 construct: bought protein; also called Human PTK7 Protein, His Tag, Acro Biosystems; not shown: His tag
# T1 sequence: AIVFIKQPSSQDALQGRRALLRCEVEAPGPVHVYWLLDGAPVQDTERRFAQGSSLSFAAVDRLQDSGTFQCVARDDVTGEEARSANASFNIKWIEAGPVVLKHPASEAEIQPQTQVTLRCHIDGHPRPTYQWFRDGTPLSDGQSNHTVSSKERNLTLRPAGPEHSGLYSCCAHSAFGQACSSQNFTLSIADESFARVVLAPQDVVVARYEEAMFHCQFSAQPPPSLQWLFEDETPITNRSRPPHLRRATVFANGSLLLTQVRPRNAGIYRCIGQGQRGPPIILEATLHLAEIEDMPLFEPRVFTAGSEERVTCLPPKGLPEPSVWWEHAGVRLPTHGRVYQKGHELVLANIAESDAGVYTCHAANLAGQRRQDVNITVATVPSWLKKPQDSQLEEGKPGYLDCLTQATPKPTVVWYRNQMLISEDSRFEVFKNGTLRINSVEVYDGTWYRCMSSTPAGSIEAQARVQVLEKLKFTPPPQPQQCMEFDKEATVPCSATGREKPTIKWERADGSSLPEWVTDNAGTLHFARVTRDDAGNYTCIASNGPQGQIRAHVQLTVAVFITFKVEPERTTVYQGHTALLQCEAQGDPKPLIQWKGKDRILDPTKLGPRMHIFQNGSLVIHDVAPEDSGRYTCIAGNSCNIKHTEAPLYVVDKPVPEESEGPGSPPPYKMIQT
# Molecular target: T1, Human PTK7/CCK4 Protein, His Tag, Acro …
# Test: BLI, antibody on anti-human Fc sensor, 50 nM PTK7
row,Binder,binding result
1,"MYT11258 (antibody, V domains shown, IgG) VH: EVQLVESGGGLVQPGGSLRLSCTASGIDLHRYSMGWVRQAPGKGLEWVGIISYGGSTYYASWAKGRFTISRDTSKNTVYLQMNSLRAEDTAVYFCARVGYPGYSGYGYAFDAFDPWGQGTLVTVSS VL: EIVMTQSPSTLSASVGDRVIITCQSSKSVYNDNWLSWYQQKPGKAPKLLIYGASTLASGVPSRFSGSGSGAEFTLTISSLQPDDFATYYCAGGYSSSSDNGFGQGTKLTVL",binds
2,"MYT11309 (antibody, V domains shown, IgG) VH: EVQLVESGGGLVQPGGSLRLSCTASGIDLSRYSMGWVRQAPGKGLEWVGIISYGGSTYYASWAKGRFTISRDTSKNTVYLQMNSLRAEDTAVYFCARVGYPGYSGYGYAFDAFDPWGQGTLVTVSS VL: EIVMTQSPSTLSASVGDRVIITCQSSKSHYNDNWLSWYQQKPGKAPKLLIYGASTLASGVPSRFSGSGSGAEFTLTISSLQPDDFATYYCAGGYSSSSDNGFGQGTKLTVL",binds
3,"MYT11289 (antibody, V domains shown, IgG) VH: EVQLVESGGGLVQPGGSLRLSCTASGIDLSRYSMGWVRQAPGKGLEWVGIISYGGSTYYASWAKGRFTISRDTSKNTVYLQMNSLRAEDTAVYFCARVGYPGYSHYGYAFDAFDPWGQGTLVTVSS VL: EIVMTQSPSTLSASVGDRVIITCQSSKSVYNDNWLSWYQQKPGKAPKLLIYGASTLASGVPSRFSGSGSGAEFTLTISSLQPDDFATYYCAGGYSSSSDNGFGQGTKLTVL",binds
4,"MYT11279 (antibody, V domains shown, IgG) VH: EVQLVESGGGLVQPGGSLRLSCTASGIDLSRYSMGWVRQAPGKGLEWVGIISYGGSTYYASWAKHRFTISRDTSKNTVYLQMNSLRAEDTAVYFCARVGYPGYSGYGYAFDAFDPWGQGTLVTVSS VL: EIVMTQSPSTLSASVGDRVIITCQSSKSVYNDNWLSWYQQKPGKAPKLLIYGASTLASGVPSRFSGSGSGAEFTLTISSLQPDDFATYYCAGGYSSSSDNGFGQGTKLTVL",binds
5,"MYT11267 (antibody, V domains shown, IgG) VH: EVQLVESGGGLVQPGGSLRLSCTASGIDLSRYSMGWVRQAPGKGLEWVGIISHGGSTYYASWAKGRFTISRDTSKNTVYLQMNSLRAEDTAVYFCARVGYPGYSGYGYAFDAFDPWGQGTLVTVSS VL: EIVMTQSPSTLSASVGDRVIITCQSSKSVYNDNWLSWYQQKPGKAPKLLIYGASTLASGVPSRFSGSGSGAEFTLTISSLQPDDFATYYCAGGYSSSSDNGFGQGTKLTVL",binds
6,"MYT11272 (antibody, V domains shown, IgG) VH: EVQLVESGGGLVQPGGSLRLSCTASGIDLSRYSMGWVRQAPGKGLEWVGIISYGGSTHYASWAKGRFTISRDTSKNTVYLQMNSLRAEDTAVYFCARVGYPGYSGYGYAFDAFDPWGQGTLVTVSS VL: EIVMTQSPSTLSASVGDRVIITCQSSKSVYNDNWLSWYQQKPGKAPKLLIYGASTLASGVPSRFSGSGSGAEFTLTISSLQPDDFATYYCAGGYSSSSDNGFGQGTKLTVL",binds
7,"MYT11263 (antibody, V domains shown, IgG) VH: EVQLVESGGGLVQPGGSLRLSCTASGIDLSRYSMHWVRQAPGKGLEWVGIISYGGSTYYASWAKGRFTISRDTSKNTVYLQMNSLRAEDTAVYFCARVGYPGYSGYGYAFDAFDPWGQGTLVTVSS VL: EIVMTQSPSTLSASVGDRVIITCQSSKSVYNDNWLSWYQQKPGKAPKLLIYGASTLASGVPSRFSGSGSGAEFTLTISSLQPDDFATYYCAGGYSSSSDNGFGQGTKLTVL",binds
8,"MYT11285 (antibody, V domains shown, IgG) VH: EVQLVESGGGLVQPGGSLRLSCTASGIDLSRYSMGWVRQAPGKGLEWVGIISYGGSTYYASWAKGRFTISRDTSKNTVYLQMNSLRAEDTAVYFCARVGYHGYSGYGYAFDAFDPWGQGTLVTVSS VL: EIVMTQSPSTLSASVGDRVIITCQSSKSVYNDNWLSWYQQKPGKAPKLLIYGASTLASGVPSRFSGSGSGAEFTLTISSLQPDDFATYYCAGGYSSSSDNGFGQGTKLTVL",binds
9,"MYT11322 (antibody, V domains shown, IgG) VH: EVQLVESGGGLVQPGGSLRLSCTASGIDLSRYSMGWVRQAPGKGLEWVGIISYGGSTYYASWAKGRFTISRDTSKNTVYLQMNSLRAEDTAVYFCARVGYPGYSGYGYAFDAFDPWGQGTLVTVSS VL: EIVMTQSPSTLSASVGDRVIITCQSSKSVYNDNWLSWYQQKPGKAPKLLIYGASTLHSGVPSRFSGSGSGAEFTLTISSLQPDDFATYYCAGGYSSSSDNGFGQGTKLTVL",binds
10,"MYT11349 (antibody, V domains shown, IgG) VH: EVQLVESGGGLVQPGGSLRLSCTASGIDLSNYAVIWVRQAPGKGLEWVGHIYTYDTTYYANWAKGRFTISRDTSKNTVYLQMNSLRAEDTAVYFCARSFSDISDLIKLWGQGTLVTVSS VL: EIVMTQSPSTLSASVGDRVIITCQASQSLYNNKDLAWYQQKPGKAPKLLIYEASKLASGVPSRFSGSGSGAEFTLTISSLQPDDFATYYCLGEFSCGSGDCLAFGQGTKLTVL",binds
11,"MYT11357 (antibody, V domains shown, IgG) VH: EVQLVESGGGLVQPGGSLRLSCTASGIDLSNYAVIWVRQAPGKGLEWVGIIYTYDTTHYANWAKGRFTISRDTSKNTVYLQMNSLRAEDTAVYFCARSFSDISDLIKLWGQGTLVTVSS VL: EIVMTQSPSTLSASVGDRVIITCQASQSLYNNKDLAWYQQKPGKAPKLLIYEASKLASGVPSRFSGSGSGAEFTLTISSLQPDDFATYYCLGEFSCGSGDCLAFGQGTKLTVL",binds
12,"MYT11369 (antibody, V domains shown, IgG) VH: EVQLVESGGGLVQPGGSLRLSCTASGIDLSNYAVIWVRQAPGKGLEWVGIIYTYDTTYYANWAKGRFTISRDTSKNTVYLQMNSLRAEDTAVYFCARSFHDISDLIKLWGQGTLVTVSS VL: EIVMTQSPSTLSASVGDRVIITCQASQSLYNNKDLAWYQQKPGKAPKLLIYEASKLASGVPSRFSGSGSGAEFTLTISSLQPDDFATYYCLGEFSCGSGDCLAFGQGTKLTVL",binds
13,"MYT11354 (antibody, V domains shown, IgG) VH: EVQLVESGGGLVQPGGSLRLSCTASGIDLSNYAVIWVRQAPGKGLEWVGIIYTYHTTYYANWAKGRFTISRDTSKNTVYLQMNSLRAEDTAVYFCARSFSDISDLIKLWGQGTLVTVSS VL: EIVMTQSPSTLSASVGDRVIITCQASQSLYNNKDLAWYQQKPGKAPKLLIYEASKLASGVPSRFSGSGSGAEFTLTISSLQPDDFATYYCLGEFSCGSGDCLAFGQGTKLTVL",binds
14,"MYT11352 (antibody, V domains shown, IgG) VH: EVQLVESGGGLVQPGGSLRLSCTASGIDLSNYAVIWVRQAPGKGLEWVGIIYHYDTTYYANWAKGRFTISRDTSKNTVYLQMNSLRAEDTAVYFCARSFSDISDLIKLWGQGTLVTVSS VL: EIVMTQSPSTLSASVGDRVIITCQASQSLYNNKDLAWYQQKPGKAPKLLIYEASKLASGVPSRFSGSGSGAEFTLTISSLQPDDFATYYCLGEFSCGSGDCLAFGQGTKLTVL",binds
15,"MYT11390 (antibody, V domains shown, IgG) VH: EVQLVESGGGLVQPGGSLRLSCTASGIDLSNYAVIWVRQAPGKGLEWVGIIYTYDTTYYANWAKGRFTISRDTSKNTVYLQMNSLRAEDTAVYFCARSFSDISDLIKLWGQGTLVTVSS VL: EIVMTQSPSTLSASVGDRVIITCQASQSLYHNKDLAWYQQKPGKAPKLLIYEASKLASGVPSRFSGSGSGAEFTLTISSLQPDDFATYYCLGEFSCGSGDCLAFGQGTKLTVL",binds
16,"MYT11363 (antibody, V domains shown, IgG) VH: EVQLVESGGGLVQPGGSLRLSCTASGIDLSNYAVIWVRQAPGKGLEWVGIIYTYDTTYYANWAHGRFTISRDTSKNTVYLQMNSLRAEDTAVYFCARSFSDISDLIKLWGQGTLVTVSS VL: EIVMTQSPSTLSASVGDRVIITCQASQSLYNNKDLAWYQQKPGKAPKLLIYEASKLASGVPSRFSGSGSGAEFTLTISSLQPDDFATYYCLGEFSCGSGDCLAFGQGTKLTVL",binds
17,"MYT11356 (antibody, V domains shown, IgG) VH: EVQLVESGGGLVQPGGSLRLSCTASGIDLSNYAVIWVRQAPGKGLEWVGIIYTYDTHYYANWAKGRFTISRDTSKNTVYLQMNSLRAEDTAVYFCARSFSDISDLIKLWGQGTLVTVSS VL: EIVMTQSPSTLSASVGDRVIITCQASQSLYNNKDLAWYQQKPGKAPKLLIYEASKLASGVPSRFSGSGSGAEFTLTISSLQPDDFATYYCLGEFSCGSGDCLAFGQGTKLTVL",binds
18,"MYT11355 (antibody, V domains shown, IgG) VH: EVQLVESGGGLVQPGGSLRLSCTASGIDLSNYAVIWVRQAPGKGLEWVGIIYTYDHTYYANWAKGRFTISRDTSKNTVYLQMNSLRAEDTAVYFCARSFSDISDLIKLWGQGTLVTVSS VL: EIVMTQSPSTLSASVGDRVIITCQASQSLYNNKDLAWYQQKPGKAPKLLIYEASKLASGVPSRFSGSGSGAEFTLTISSLQPDDFATYYCLGEFSCGSGDCLAFGQGTKLTVL",binds
19,"MYT11376 (antibody, V domains shown, IgG) VH: EVQLVESGGGLVQPGGSLRLSCTASGIDLSNYAVIWVRQAPGKGLEWVGIIYTYDTTYYANWAKGRFTISRDTSKNTVYLQMNSLRAEDTAVYFCARSFSDISDLIHLWGQGTLVTVSS VL: EIVMTQSPSTLSASVGDRVIITCQASQSLYNNKDLAWYQQKPGKAPKLLIYEASKLASGVPSRFSGSGSGAEFTLTISSLQPDDFATYYCLGEFSCGSGDCLAFGQGTKLTVL",binds
